Measured values published in US20170226167A1.
Where no end group is shown, it is not given here. [ ]: non-standard residue; d: D form. Met(O) = CS(=O)CC[C@H](N)C(=O)O; pS = N[C@@H](COP(=O)(O)O)C(=O)O

Key:
[1] = molecular target: Recombinant bovine HSC70 (Stressgen) (bovine) (UniProt P19120); test: SPR (BIAcore 3000), bovine HSC70 immobilized, peptide at 6.25 µM, 1:1 Langmuir fit
[2] = molecular target: Recombinant bovine HSC70 (Stressgen) (bovine) (UniProt P19120); test: SPR (BIAcore 3000), bovine HSC70 immobilized, peptide at 25 µM, 1:1 Langmuir fit
[3] = molecular target: Recombinant bovine HSC70 (Stressgen) (bovine) (UniProt P19120); test: SPR (BIAcore 3000), bovine HSC70 immobilized, peptide at 3.12 µM, 1:1 Langmuir fit
[4] = molecular target: Recombinant bovine HSC70 (Stressgen) (bovine) (UniProt P19120); test: SPR (BIAcore 3000), bovine HSC70 immobilized, peptide at 12.5 µM, 1:1 Langmuir fit
[5] = molecular target: Recombinant bovine HSC70 (Stressgen) (bovine) (UniProt P19120); test: SPR (BIAcore 3000), bovine HSC70 immobilized, peptide as analyte, 1:1 Langmuir fit, 25 C
[6] = molecular target: Recombinant bovine HSC70 (Stressgen) (bovine) (UniProt P19120); test: SPR (BIAcore 3000), bovine HSC70 immobilized, peptide at 1.56 µM, 1:1 Langmuir fit

Recombinant bovine HSC70 (Stressgen) (bovine), sequence (P19120 whole entry): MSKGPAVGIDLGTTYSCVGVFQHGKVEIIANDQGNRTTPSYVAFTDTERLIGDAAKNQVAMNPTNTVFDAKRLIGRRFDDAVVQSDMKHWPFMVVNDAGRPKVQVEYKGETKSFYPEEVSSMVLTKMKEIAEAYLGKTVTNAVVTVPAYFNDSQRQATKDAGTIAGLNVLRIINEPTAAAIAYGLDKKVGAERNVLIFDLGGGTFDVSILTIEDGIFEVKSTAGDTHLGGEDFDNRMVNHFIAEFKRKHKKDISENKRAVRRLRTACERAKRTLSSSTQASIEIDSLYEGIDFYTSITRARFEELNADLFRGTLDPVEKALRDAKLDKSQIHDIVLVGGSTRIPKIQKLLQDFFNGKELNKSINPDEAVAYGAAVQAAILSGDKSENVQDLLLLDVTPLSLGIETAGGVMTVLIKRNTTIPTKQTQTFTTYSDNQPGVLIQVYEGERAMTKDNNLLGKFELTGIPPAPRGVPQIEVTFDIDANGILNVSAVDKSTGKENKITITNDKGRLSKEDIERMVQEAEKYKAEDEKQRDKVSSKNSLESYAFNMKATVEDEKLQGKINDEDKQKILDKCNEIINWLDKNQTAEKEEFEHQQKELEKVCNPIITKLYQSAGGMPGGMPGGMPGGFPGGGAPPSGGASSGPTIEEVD

| Binder | Ka [1] [M⁻¹] | Kd [1] [µM] | Req (RU) [1] [RU] | kobs [1] [s⁻¹] | koff [1] [s⁻¹] | Ka [2] [M⁻¹] | Kd [2] [µM] | Req (RU) [2] [RU] | kobs [2] [s⁻¹] | koff [2] [s⁻¹] | Ka [3] [M⁻¹] | Kd [3] [µM] | Req (RU) [3] [RU] | kobs [3] [s⁻¹] | koff [3] [s⁻¹] | Ka [4] [M⁻¹] | Kd [4] [µM] | Req (RU) [4] [RU] | kobs [4] [s⁻¹] | koff [4] [s⁻¹] | other results |
| --- | --- | --- | --- | --- | --- | --- | --- | --- | --- | --- | --- | --- | --- | --- | --- | --- | --- | --- | --- | --- | --- |
| RIHMVYSKR[pS]GKPRGYAFIEY [P140 peptide (peptide consisting of SEQ ID NO: 1, in which serine at position 10 is phosphorylated)] | 144000 | 6.94 | 39.5 | 0.00593 | 0.00312 | 144000 | 6.94 | 65.2 | 0.0144 | 0.00312 | 144000 | 6.94 | 25.8 | 0.00452 | 0.00312 | 144000 | 6.94 | 53.6 | 0.00874 | 0.00312 | kon [5]: 450 M⁻¹ s⁻¹; Ka [6]: 144000 M⁻¹; Kd [6]: 6.94 µM; Req (RU) [6]: 15.3 RU; kobs [6]: 0.00382 s⁻¹; koff [6]: 0.00312 s⁻¹ |
| RIH[Met(O)]VYSKR[pS]GKPRGYAFIEY | 524000 | 1.91 | 29.9 | 0.0094 | 0.0022 | 524000 | 1.91 | 36.3 | 0.031 | 0.0022 | 524000 | 1.91 | 24.2 | 0.0058 | 0.0022 | 524000 | 1.91 | 33.9 | 0.0166 | 0.0022 | kon [5]: 1150 M⁻¹ s⁻¹; Ka [6]: 524000 M⁻¹; Kd [6]: 1.91 µM; Req (RU) [6]: 17.6 RU; kobs [6]: 0.004 s⁻¹; koff [6]: 0.0022 s⁻¹ |
